Experimental data: patent publication US6258556

Molecular target: human µ opiate receptor (human)

adenyl cyclase activity (cAMP radioimmunoassay) in forskolin-stimulated COS cells: > 30%
Substance: (D-ala^2, N-methyl-phe^4, glyol^5) enkephalin (peptide)
